# Results: patent US8114968 (DYAX, dated 2012)
# Numbering of substitutions follows the chain as printed.
# B1: 539A-M0013-H06 Fab (Fab, V domains shown)
# VH: EVQLLESGGGLVQPGGSLRLSCAASGFTFSAYEMDWVRQAPGKGLEWVSGISSSGGPTYYADSVKGRFTISRDNSKNTLYLQMNSLRAEDTAVYYCARVGGWELLQDYYYYMDVWGKGTTVTVSS
# VL: DIQMTQSPATLSLSPGERATLSCRASHSVDNLAWYQQQPGQAPRLLIYDVSYRATGIPARFSGSGSGTDFTLTISSLEPEDFAVYYCQQRNNWPLSLTFGGGTKVEIK
# B2: 539A-M0016-A11 Fab (Fab, V domains shown)
# VH: EVQLLESGGGLVQPGGSLRLSCAASGFTFSEYQMAWVRQAPGKGLEWVSSIYPSGGHTHYADSVKGRFTISRDNSKNTLYLQMNSLRAEDTAVYYCAKESYYDFWSGYYFDYWGQGTLVTVSS
# VL: DIQMTQSPSSLSASVRDRVTITCRTSQNINTYLNWYYQAPGRAPKLLIFGVSSLHRGVSSRFSGSGDGTEFTLTISSLQPEDIGTYFCQQSYSSPWTFGQGTKVEIK
# B3: 539A-M0016-H05 Fab (Fab, V domains shown)
# VH: EVQLLESGGGLVQPGGSLRLSCAASGFTFSWYAMSWVRQAPGKGLEWVSRIVPSGGDTGYADSVKGRFTISRDNSKNTLYLQMNSLRAEDTAVYYCATFRGIMYGDYGSSYWYFDLWGRGTLVTVSS
# VL: DIQMTQSPATLSLSPGERATLSCRASQSVSSYLAWYQQKPGQAPRLLIYDASNRATGIPARFSGSGSGTDFTLTISSLEPEDFAVYYCQQRSNWPLTFGGGTKVEIK
# B4: 539A-M0016-H05 IgG (antibody, V domains shown)
# VH: B3 VH
# VL: B3 VL
# B5: 539A-M0022-C07 Fab (Fab, V domains shown)
# VH: EVQLLESGGGLVQPGGSLRLSCAASGFTFSIYQMWWVRQAPGKGLEWVSSISSSGFTWYADSVKGRFTISRDNSKNTLYLQMNSLRAEDTAVYYCTTEDIGYYYGMDVWGQGTTVTVSS
# VL: DIQMTQSPATLSVSPGERATLSCRASQNVRNYLAWYQQKPGQAPRLLIYDASKRATGIPARFSGSGSGTDFTLTISGLEPEDFAVYYCQQRSNWPTFGPGTKVDIK
# B6: 539A-M0022-C07 IgG (antibody, V domains shown)
# VH: B5 VH
# VL: B5 VL
# B7: 539A-M0014-C09 IgG (antibody, V domains shown)
# VH: EVQLLESGGGLVQPGGSLRLSCAASGFTFSDYSMHWVRQAPGKGLEWVSGIGPSGGPTFYADSVKGRFTISRDNSKNTLYLQMNSLRAEDTAVYYCARGEYSSSDYYYYYGMDVWGQGTTVTVSS
# VL: DIQMTQSPATLSLSPGERATLSCGASQNIDGYYLAWYQQKPGQAPSLLIYDASSRSTGVPDRFSGSGSGTDFTLTISRLEPEDFAVYYCQHYGNSLWTFGQGTKVEIK
# B8: 539A-M0014-C09 Fab (Fab, V domains shown)
# VH: B7 VH
# VL: B7 VL
# B9: 539A-M0019-C05 Fab (Fab, V domains shown)
# VH: EVQLLESGGGLVQPGGSLRLSCAASGFTFSWYAMVWVRQAPGKGLEWVSYIGSSGGVTGYADSVKGRFTISRDNSKNTLYLQMNSLRAEDTAVYYCARQKRVDYYDSSGYPTNAEFDYWGQGTLVTVSS
# VL: QYELTQPRSVSGSPGQSVTISCTGSSSDVAGFYYVSWYQQHPGKAPKLMIRDVNDRPSGVSNRFSGSKSGNTASLTIAGLQTEDEAVYYCSSTSRSDTRVIFGGGTKLTV
# B10: 539A-M0019-C05 IgG (antibody, V domains shown)
# VH: B9 VH
# VL: B9 VL
# B11: 539A-M0013-G12 Fab (Fab, V domains shown)
# VH: EVQLLESGGGLVQPGGSLRLSCAASGFTFSWYHMFWVRQAPGKGLEWVSGISSSGGYTHYADSVKGRFTISRDNSKNTLYLQMNSLRAEDTAVYYCATREGMLYDYVWGENYMDVWGKGTTVTVSS
# VL: DIQMTQSPSSLSASVGDRVTITCQASQDTYNRLHWYQQKPGKAPKLLIYDAVNLNRGVPSRFRGSGSGTNYILIITNLQPEDTATYYCQHSDDLSLAFGGGTKVEIK
# B12: 539A-M0014-G11 Fab (Fab, V domains shown)
# VH: EVQLLESGGGLVQPGGSLRLSCAASGFTFSWYVMVWVRQAPGKGLEWVSSIYSSGGPTKYADSVKGRFTISRDNSKNTLYLQMNSLRAEDTAVYYCAKEGGVYGGPELYYYYYGMDVWGQGTTVTVSS
# VL: QYELTQPPSASGTPGQRITISCSGSSSNLGSNPVQWYQQLPGSAPKLLIHTNTHRPSGVPDRFSGSKSVTSASLAISGLQSEDEAEYYCATWDDSLNGGVFGGGTKLTVL
# B13: 539A-M0014-G11 IgG (antibody, V domains shown)
# VH: B12 VH
# VL: B12 VL
# B14: 539A-M0013-D11 Fab (Fab, V domains shown)
# VH: EVQLLESGGGLVQPGGSLRLSCAASGFTFSSYPMWWVRQAPGKGLEWVSGIVPSGGVTIYADSVKGRFTISRDNSKNTLYLQMNSLRAEDTAVYYCARVGWLASSDYYYYMDVWGKGTTVTVSS
# VL: DIQMTQSPSSLSASVGDRITISCQASQDIDNYLNWYQQRSGKAPKLLIYDAYNLKAGVPSRFRGSRSGTDFFLTISSLQPEDFATYYCQQSYRAPLTFGGGTKVEIK
# B15: 539A-M0020-B01 Fab (Fab, V domains shown)
# VH: EVQLLESGGGLVQPGGSLRLSCAASGFTFSHYVMHWVRQAPGKGLEWVSYIGSSGGETRYADSVKGRFTISRDNSKNTLYLQMNSLRAEDTAVYYCARADYGDYDYYYYYGMDVWGQGTTVTVSS
# VL: QYELTQPPSVSVAPGQTATITCEGNNIASKSVHWYQQKPGQAPVLVVYDDRDRPSGISERISGSNSGNTPTLTIFRVEAGDEADYYCQVSDSATDHRVFGGGTKLTVL
# B16: 539A-M0027-E11 Fab (Fab, V domains shown)
# VH: B15 VH with V33E, H35E, Y50S, G52S, E57P, R59M, A99G, D100M, Y106F
# VL: DIQMTQSPDTLSLSPGERGTLSCRASQSLSSSYLAWYQQKPGQAPRLLIYDASSRATGIPDRFSGSGSGTDFTLTIGRLEPEDSAVYYCQQYGSFPLTFGGGTKVEIK
# B17: 539A-M0027-E11 IgG (antibody, V domains shown)
# VH: B15 VH with V33E, H35E, Y50S, G52S, E57P, R59M, A99G, D100M, Y106F
# VL: B16 VL
# B18: 539A-M0020-B01 IgG (antibody, V domains shown)
# VH: B15 VH
# VL: B15 VL
# B19: 539B-M0063-B01 (Fab, V domains shown)
# VH: EVQLLESGGGLVQPGGSLRLSCAASGFTFSWYWMGWVRQAPGKGLEWVSSISPSGGYTFYADSVKGRFTISRDNSKNTLYLQMNSLRAEDTAVYYCAKDIRGAYSSGLFDYWGRGTLVTVSS
# VL: DIQMTQSPSSLSASVGDRVTITCRANQSIYTYLNWYQQKPGKAPELLIYAASSLQSGVPSRFSGSGSGTDFTLTISSLQPEDFATYYCQQAGIFGQGTKLEIK
# B20: 539B-M0063-B11 (Fab, V domains shown)
# VH: B19 VH with W31P, G35H, S50G, S52G, Y57L
# VL: B19 VL
# B21: 539B-M0065-H05 (Fab, V domains shown)
# VH: B19 VH with W31Y, W33G, S50V, P53S, Y57F
# VL: B19 VL
# B22: 539B-M0071-H03 (Fab, V domains shown)
# VH: B19 VH with W31P, G35H, S50G, S52G, Y57P, V64I
# VL: B19 VL
# B23: 539B-M0069-C02 (Fab, V domains shown)
# VH: B19 VH with W31Y, W33N, G35H, S50G, S52G, Y57G, F59L
# VL: B19 VL
# B24: 539B-M0067-B06 (Fab, V domains shown)
# VH: B19 VH with G35H, S50G, S52V, P53S, Y57T, F59I
# VL: B19 VL
# B25: 539B-M0071-D09 (Fab, V domains shown)
# VH: B19 VH with W31P, G35H, S50G, P53S, Y57D, F59L
# VL: B19 VL
# B26: 539B-M0069-D10 (Fab, V domains shown)
# VH: B19 VH with W31L, W33H, G35H, S50G, S52G, Y57W, F59I
# VL: B19 VL
# B27: 539B-M0065-G03 (Fab, V domains shown)
# VH: B19 VH with W33G, S50V, S52V, P53S, Y57F, F59Q
# VL: B19 VL
# B28: 539B-M0065-E12 (Fab, V domains shown)
# VH: B19 VH with W33N, G35H, S50G, Y57N, F59M
# VL: B19 VL
# Biological target: T1, human MMP-12 (human, UniProt P39900 106-470, limits assumed)
# T1 sequence (P39900 106-470 limits assumed): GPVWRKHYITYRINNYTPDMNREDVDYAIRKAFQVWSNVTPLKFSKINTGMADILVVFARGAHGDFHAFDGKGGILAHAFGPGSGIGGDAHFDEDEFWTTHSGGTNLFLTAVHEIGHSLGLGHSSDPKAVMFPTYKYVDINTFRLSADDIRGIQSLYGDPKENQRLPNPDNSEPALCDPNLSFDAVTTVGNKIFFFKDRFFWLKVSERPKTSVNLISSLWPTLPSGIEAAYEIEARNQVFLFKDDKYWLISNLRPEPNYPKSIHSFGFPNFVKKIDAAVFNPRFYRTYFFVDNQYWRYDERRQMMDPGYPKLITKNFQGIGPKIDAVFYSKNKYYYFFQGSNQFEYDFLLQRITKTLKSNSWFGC
# Assay: cell-based or functional assay
"IC50 (nM), large scale purified Fabs [nM]","IC50 (nM), IgGs [nM]",Binder
11.9,–,B1
8.8,–,B2
56.6,–,B3
–,32.9,B4
24.2,–,B5
–,13.2,B6
–,43.3,B7
36.9,–,B8
93,–,B9
–,24.5,B10
6.7,–,B11
35,–,B12
–,12.3,B13
20.3,–,B14
74.8,–,B15
23.9,–,B16
–,23.7,B17
–,34.6,B18

# Biological target: T2, murine MMP-12 (mouse, UniProt P34960 110-473, limits assumed)
# T2 construct: also called mouse MMP12; mMMP12
# T2 sequence (P34960 110-473 limits assumed): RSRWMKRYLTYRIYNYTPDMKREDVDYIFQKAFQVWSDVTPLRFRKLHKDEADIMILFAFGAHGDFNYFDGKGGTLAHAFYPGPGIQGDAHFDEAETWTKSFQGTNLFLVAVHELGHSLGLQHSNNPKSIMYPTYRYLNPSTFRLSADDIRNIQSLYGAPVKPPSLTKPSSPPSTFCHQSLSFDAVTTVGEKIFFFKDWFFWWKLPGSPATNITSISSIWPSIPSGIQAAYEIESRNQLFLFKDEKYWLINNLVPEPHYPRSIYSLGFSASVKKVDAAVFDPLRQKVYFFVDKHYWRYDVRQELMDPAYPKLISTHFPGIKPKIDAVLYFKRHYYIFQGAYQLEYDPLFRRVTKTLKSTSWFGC
# Assay: BIACORE, coated Fab
row,koff [s⁻¹],Binder
1,0.0025,B19
2,0.00311,B20

# Biological target: T1, human MMP-12
# Assay: BIACORE, coated Fab
row,Kd [nM],Binder
1,0.171,B19
2,2.19,B21
3,1.03,B22
4,0.12,B20
5,6.97,B23
6,0.62,B24

# Biological target: T2, murine MMP-12
# Assay: cell-based or functional assay
row,IC50 m,Binder
1,> 10 nM (not printed; inferred),B19
2,< 10 nM (not printed; inferred),B25
3,< 10 nM (not printed; inferred),B26
4,< 10 nM (not printed; inferred),B27
5,< 10 nM (not printed; inferred),B28
6,< 10 nM (not printed; inferred),B22
7,> 10 nM (not printed; inferred),B20
8,~10 nM (not printed; inferred),B23
9,< 10 nM (not printed; inferred),B24

# Biological target: T1, human MMP-12
# Assay: cell-based or functional assay
# Remark: another data set of the same source
row,IC50hu [nM],Binder
1,0.7,B19
2,2.4,B25
3,2.3,B26
4,3,B27
5,1.4,B28
6,0.7,B21
7,0.2,B22
8,0.7,B20
9,1.6,B23
10,0.7,B24
